{"source": "patent US20160009770A1", "about": "(LAWRENCE BERKELEY NATIONAL LABORATORY, published 2016)", "proteins": {"B1": {"name": "dC16-BB-P2K conjugate 8 (designed binder)", "peptide": "dC16-GGGEIWKLHEEFLC([maleimide-PEG 2000 Da])KFEELLKLHEERLKKM", "modifications": "reading uncertain", "notes": "also called BB-dC16-P2K; H10H24-dC16-PEG2K"}}, "target": "the molecule itself", "assay": "UV-vis heme titration; reports an intact 4-helix bundle (self-association)", "note": "Side chains are listed from the residue outwards. Ends that are not written are not given here. dC16 = not defined here", "data": [{"protein": "B1", "values": [{"measurement": "binding result", "value": "binds"}]}]}
